Columns and labels:
CD7 [1] = target: T1, CD7 (human, UniProt P09564 26-180, limits assumed); test: SPR; ratio of KD to WT
T1 construct: also called human CD7
T1 sequence (looked up): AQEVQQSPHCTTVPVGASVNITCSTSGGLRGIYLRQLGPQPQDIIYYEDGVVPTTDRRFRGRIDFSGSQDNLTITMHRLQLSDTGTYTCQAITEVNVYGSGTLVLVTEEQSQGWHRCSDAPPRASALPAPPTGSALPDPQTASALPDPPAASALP

CD7 [2] = target: T1, CD7; test: SPR

Fold reduction in binding affinity compared to WT (Kd) (CD7 [1]): 17 fold
Kd (CD7 [2]): 44.5 nM
B1: 7-AA-1 (antibody, V domains shown)
VH: QVQLQESGAELVKPGASVKLSCKASGYTFTSYWMHWVKQRPGQGLEWIGKINPSNGRTNYNEKFKSKATLTVDKSSSTAYMQLSSLTSEDSAVYYCARGGVYYDLYYAALDYWGQGTTVTVSS
VL: DIELTQSPATLSVTPGDSVSLSCRASQSISNNLHWYQQKSHESPRLLIKSASQSISGIPSRFSGSGSGTDFTLSINSVETEDFGMYFCQQSNSWPYTFGGGTKLEIKR
